According to the supplement of paper PMC9112550, “Optimization of the antimicrobial peptide Bac7 by deep mutational scanning” (BMC Biology, 2022):

Test system: Escherichia coli TOP10
Experiment: shrunken log2 fold change of peptide-encoding DNA abundance (4.5 h post-induction vs induction); higher = less antimicrobial activity (less host growth inhibition)
Settings: time post-induction: 4.5 h; library: site-saturation at positions 5, 18, 19, 20
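Note: peptides expressed intracellularly from a pBAD plasmid library in pooled LB shake-flask culture, induced with 0.3% L-arabinose, DNA abundance read by NGS, three biological replicates, DESeq2 with apeglm shrinkage.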

| Sequence | shrunken log2 fold change |
| --- | --- |
| RRIRGRPPRLPRPRPRPMQSPRP | 0.47 |
| RRIRGRPPRLPRPRPRPMRFPRP | 0.112 |
| RRIRGRPPRLPRPRPRPMSLPRP | -0.0288 |
| RRIRGRPPRLPRPRPRPMSTPRP | 0.44 |
| RRIRGRPPRLPRPRPRPMSVPRP | 0.0559 |
| RRIRGRPPRLPRPRPRPMVWPRP | 0.156 |
| RRIRGRPPRLPRPRPRPMWLPRP | 0.25 |
| RRIRGRPPRLPRPRPRPMWYPRP | 0.293 |
| RRIRGRPPRLPRPRPRPMYAPRP | 0.706 |
| RRIRGRPPRLPRPRPRPMYHPRP | -0.242 |
| RRIRGRPPRLPRPRPRPMYLPRP | 0.0702 |
| RRIRGRPPRLPRPRPRPNCGPRP | 0.0147 |
| RRIRGRPPRLPRPRPRPNCHPRP | 0.415 |
| RRIRGRPPRLPRPRPRPNCQPRP | 0.458 |
| RRIRGRPPRLPRPRPRPNEHPRP | 0.435 |
| RRIRGRPPRLPRPRPRPNFKPRP | 0.142 |
| RRIRGRPPRLPRPRPRPNHVPRP | 0.425 |
| RRIRGRPPRLPRPRPRPNIDPRP | 0.644 |
| RRIRGRPPRLPRPRPRPNISPRP | 0.231 |
| RRIRGRPPRLPRPRPRPNKRPRP | 0.26 |
| RRIRGRPPRLPRPRPRPNKTPRP | -0.0264 |
| RRIRGRPPRLPRPRPRPNKVPRP | 0.0962 |
| RRIRGRPPRLPRPRPRPNLDPRP | 0.265 |
| RRIRGRPPRLPRPRPRPNLEPRP | 0.678 |
| RRIRGRPPRLPRPRPRPNNVPRP | -0.131 |

| Sequence | shrunken log2 fold change |
| --- | --- |
| RRIRGRPPRLPRPRPRPNPDPRP | 0.221 |
| RRIRGRPPRLPRPRPRPNQAPRP | -0.0774 |
| RRIRGRPPRLPRPRPRPNQYPRP | -0.166 |
| RRIRGRPPRLPRPRPRPNSWPRP | 0.356 |
| RRIRGRPPRLPRPRPRPNTPPRP | 0.237 |
| RRIRGRPPRLPRPRPRPNYFPRP | 0.0394 |
| RRIRGRPPRLPRPRPRPPAFPRP | 1.09 |
| RRIRGRPPRLPRPRPRPPAGPRP | 1.37 |
| RRIRGRPPRLPRPRPRPPAKPRP | 1.48 |
| RRIRGRPPRLPRPRPRPPATPRP | 1.79 |
| RRIRGRPPRLPRPRPRPPCRPRP | 0.637 |
| RRIRGRPPRLPRPRPRPPCVPRP | 1.15 |
| RRIRGRPPRLPRPRPRPPDQPRP | 1.14 |
| RRIRGRPPRLPRPRPRPPEGPRP | 1.15 |
| RRIRGRPPRLPRPRPRPPELPRP | 1.18 |
| RRIRGRPPRLPRPRPRPPFNPRP | 1.66 |
| RRIRGRPPRLPRPRPRPPIDPRP | 0.888 |
| RRIRGRPPRLPRPRPRPPIHPRP | 0.108 |
| RRIRGRPPRLPRPRPRPPISPRP | 0.163 |
| RRIRGRPPRLPRPRPRPPKGPRP | 0.673 |
| RRIRGRPPRLPRPRPRPPLLPRP | 0.633 |
| RRIRGRPPRLPRPRPRPPMEPRP | -0.0178 |
| RRIRGRPPRLPRPRPRPPMYPRP | 0.145 |
| RRIRGRPPRLPRPRPRPPNMPRP | 0.0204 |
| RRIRGRPPRLPRPRPRPPNQPRP | 0.535 |

| Sequence | shrunken log2 fold change |
| --- | --- |
| RRIRGRPPRLPRPRPRPPTIPRP | 0.459 |
| RRIRGRPPRLPRPRPRPPVFPRP | 0.647 |
| RRIRGRPPRLPRPRPRPPWLPRP | 0.849 |
| RRIRGRPPRLPRPRPRPPYAPRP | 0.798 |
| RRIRGRPPRLPRPRPRPPYFPRP | 0.0555 |
| RRIRGRPPRLPRPRPRPPYGPRP | 0.341 |
| RRIRGRPPRLPRPRPRPPYSPRP | -0.084 |
| RRIRGRPPRLPRPRPRPQACPRP | 0.27 |
| RRIRGRPPRLPRPRPRPQAVPRP | 0.295 |
| RRIRGRPPRLPRPRPRPQCWPRP | 0.623 |
| RRIRGRPPRLPRPRPRPQDWPRP | 0.639 |
| RRIRGRPPRLPRPRPRPQERPRP | 0.595 |
| RRIRGRPPRLPRPRPRPQEWPRP | 0.12 |
| RRIRGRPPRLPRPRPRPQFEPRP | 0.156 |
| RRIRGRPPRLPRPRPRPQGDPRP | 0.824 |
| RRIRGRPPRLPRPRPRPQHFPRP | 0.139 |
| RRIRGRPPRLPRPRPRPQHWPRP | 0.165 |
| RRIRGRPPRLPRPRPRPQIKPRP | 0.324 |
| RRIRGRPPRLPRPRPRPQKMPRP | 0.331 |
| RRIRGRPPRLPRPRPRPQLWPRP | 0.928 |
| RRIRGRPPRLPRPRPRPQMGPRP | 0.339 |
| RRIRGRPPRLPRPRPRPQMSPRP | 0.395 |
| RRIRGRPPRLPRPRPRPQPGPRP | 0.606 |
| RRIRGRPPRLPRPRPRPQQHPRP | 0.232 |
| RRIRGRPPRLPRPRPRPQQIPRP | 0.457 |
